Literature values in PMC8476072.

Molecular target: CheZ (Escherichia coli) (UniProt P0A9H9)
Chain of UniProt P0A9H9 (P0A9H9 whole entry): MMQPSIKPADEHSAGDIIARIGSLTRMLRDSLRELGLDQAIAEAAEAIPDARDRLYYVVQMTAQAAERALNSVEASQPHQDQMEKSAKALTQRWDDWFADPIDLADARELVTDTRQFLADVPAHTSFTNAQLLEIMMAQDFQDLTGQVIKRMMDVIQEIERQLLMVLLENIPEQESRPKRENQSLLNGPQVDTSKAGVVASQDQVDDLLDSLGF

For CheY (from UniProt P0AE67), the Kd is given as 8 µM.
